Reference: PMC3022821, “Glycogen synthase kinase-3β inactivation inhibits tumor necrosis factor-α production in microglia by modulating nuclear factor κB and MLK3/JNK signaling cascades” (Journal of Neuroinflammation, 2010)

Target: the molecule itself
Assay: immunoprecipitation and non-reducing SDS-PAGE; BV-2 lysates, IP with goat anti-MLK3; precipitates separated by SDS-PAGE without DTT; blot with rabbit anti-MLK3; disulfide-linked dimer; cells with or without LPS (100 ng/ml)

B1: Mixed lineage kinase 3 (MLK3) (natural protein, mouse (endogenous in BV-2), UniProt Q80XI6 1-850, looked up)
chain: MEPLKNLFLKSPLGSWNGSGSGGGGGTGGVRPEGSPKATAAYANPVWTALFDYEPNGQDELALRKGDRVEVLSRDAAISGDEGWWAGQVGGQVGIFPSNYVSRGGGPPPCEVASFQELRLEEVIGIGGFGKVYRGSWRGELVAVKAARQDPDEDISVTAESVRQEARLFAMLAHPNIIALKAVCLEEPNLCLVMEYAAGGPLSRALAGRRVPPHVLVNWAVQIARGMHYLHCEALVPVIHRDLKSNNILLLQPIEGDDMEHKTLKITDFGLAREWHKTTQMSAAGTYAWMAPEVIKASTFSKGSDVWSFGVLLWELLTGEVPYRGIDCLAVAYGVAVNKLTLPIPSTCPEPFAQLMADCWAQDPHRRPDFASILQQLEALEAQVLREMPRDSFHSMQEGWKREIQGLFDELRAKEKELLSREEELTRAAREQRSQAEQLRRREHLLAQWELEVFERELTLLLQQVDRERPHVRRRRGTFKRSKLRARDGGERISMPLDFKHRITVQASPGLDRRRNVFEVGAGDSPTFPRFRAIQLEPTESGQTWGRQSPRRLEDSSNGERRACWAWGPSSPKPGEAQNGRRRSRMDEATWYLDSDDSSPLGSPSTPPALNGNPPRPSPEPEEPRRAGPTERGNSSGTPKLIQRALLRGTALLASLGLGRDLQPPGGLSRERGESPTAPPPAQMPSPCPPELPSTPLIRLSQTTPDAHSSPTPGPLLLDLGVPSGQPSAKSPRREETRGRTVSPPPGISRSAPGTPGTPRSPPLGLISRPRPSPLRSRIDPWSFVSAGPRPSPLPSPQPAPRRAPWTLFPDSDPFWDSPPANPFRGGSQDCRTQTKDMGAQAPWAPEAGP
notes: Mixed lineage kinase 3 (MLK3), endogenous in murine BV-2 microglial cells; monomer of 105 kDa on SDS-PAGE; Precipitated with a goat anti-MLK3 antibody (Santa Cruz Biotechnology); the dimer is disulfide-linked and is seen only without DTT; source: endogenous, BV-2 cell lysate
stoichiometry N: 2
